Results published in patent publication US20120316071A1.

Assays:
[1] = target: rHuman ErbB2/Fc Chimera, CF (R&D Systems Cat#1129-ER) (human) (UniProt P04626); experiment: Multispot ECL (MSD) assay, antigen spotted on plate, Fab at […]; blank spot 2945
[2] = target: rHuman ErbB2/Fc Chimera, CF (R&D Systems Cat#1129-ER) (human) (UniProt P04626); experiment: Multispot ECL (MSD) assay, antigen spotted on plate, Fab at […]; blank spot 751
[3] = target: rHuman ErbB2/Fc Chimera, CF (R&D Systems Cat#1129-ER) (human) (UniProt P04626); experiment: Multispot ECL (MSD) assay, antigen spotted on plate, Fab at 0.096 µM; blank spot 917
[4] = target: rHuman CD44/Fc Chimera, CF (R&D Systems Cat#3660-CD) (human) (UniProt P16070); experiment: ECL multispot (MSD), antigen spotted, Fab in solution
[5] = target: rHuman ErbB2/Fc Chimera, CF (R&D Systems Cat#1129-ER) (human) (UniProt P04626); experiment: as above
[6] = target: Recombinant Human DLL4 (R&D Systems Cat#1506-D4/CF) (human) (UniProt Q9NR61); experiment: as above
[7] = target: rHuman P-Cadherin/Fc Chimera, CF (R&D Systems Cat#861-PC) (human) (UniProt P22223); experiment: as above
[8] = target: rHuman HGF R/c-MET/Fc Chimera, CF (R&D Systems Cat#358-MT/CF) (human) (UniProt P08581); experiment: as above
[9] = target: rHuman Erythropoietin R/Fc Chimera, CF (R&D Systems Cat#963-ER) (human) (UniProt P19235); experiment: as above
[10] = target: rHuman Notch-1/Fc Chimera, CF (R&D Systems Cat#3647-TK) (human) (UniProt P46531); experiment: as above
[11] = target: rHuman EGF R/Fc Chimera, CF (R&D Systems Cat#344-ER) (human) (UniProt P00533); experiment: as above
[12] = target: rHuman IGF-1 sR, CF (R&D Systems Cat#391-GR) (human) (UniProt P08069); experiment: as above

ECL signal [1] | ECL signal [2] | ECL signal [3] | ECL signal/blank ratio [4] | ECL signal/blank ratio [5] | ECL signal/blank ratio [6] | ECL signal/blank ratio [7] | ECL signal/blank ratio [8] | ECL signal/blank ratio [9] | ECL signal/blank ratio [10] | ECL signal/blank ratio [11] | ECL signal/blank ratio [12] | Substance
11300 | 2310 | 3360 |  |  |  |  |  |  |  |  |  | Fab VH1-46_IGHD6-13*01_IGHJ4*01 & A27_IGKJ1*01
 |  |  | 1 | 1.6 | 2 | 9.8 | 1.3 | 4.3 | 1.4 | 1.2 | 0.8 | Fab VH3-23_IGHD3-10*01>3_IGHJ6*01 Y112V & O12_IGKJ1*01
